Measurements: patent US20100240066A1 (MCGILL UNIVERSITY, published 2010)
Read-outs that look alike come from different tables or passages of the source. Where no end group is shown, it is not given here.

Assays:
[1] = biological target: T1, N-cadherin/Fc chimeric protein (human, UniProt P19022 160-724); experiment: summary table, column Peptide Binds to N-cad/Fc; assay not named
T1 construct: range 160-724; Bought from R&D Systems; also called N-cad/Fc; human N-cadherin/Fc chimeric protein; not shown: Fc region of human IgG1
T1 sequence (looked up): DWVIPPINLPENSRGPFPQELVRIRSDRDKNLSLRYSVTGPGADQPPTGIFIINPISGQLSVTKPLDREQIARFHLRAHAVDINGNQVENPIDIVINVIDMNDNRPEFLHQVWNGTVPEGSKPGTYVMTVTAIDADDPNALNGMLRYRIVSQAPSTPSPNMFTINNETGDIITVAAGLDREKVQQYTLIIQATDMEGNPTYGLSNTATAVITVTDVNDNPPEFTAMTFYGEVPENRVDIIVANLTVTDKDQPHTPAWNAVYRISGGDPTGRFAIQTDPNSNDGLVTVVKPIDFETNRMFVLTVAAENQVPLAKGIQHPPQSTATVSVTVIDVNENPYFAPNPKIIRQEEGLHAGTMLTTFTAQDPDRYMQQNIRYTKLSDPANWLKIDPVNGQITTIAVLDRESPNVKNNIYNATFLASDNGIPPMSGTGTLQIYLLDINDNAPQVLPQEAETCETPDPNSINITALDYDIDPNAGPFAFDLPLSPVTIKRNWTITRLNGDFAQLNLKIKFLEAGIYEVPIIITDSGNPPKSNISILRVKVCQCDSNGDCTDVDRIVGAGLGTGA

[2] = biological target: T2, E-cadherin/Fc chimeric protein (human, UniProt P12830 155-707); experiment: summary table, column Peptide Binds to E-cad/Fc; assay not named
T2 construct: range 155-707; Bought from R&D Systems; also called E-cad/Fc; human E-cadherin/Fc chimeric protein; not shown: Fc region of human IgG1
T2 sequence (looked up): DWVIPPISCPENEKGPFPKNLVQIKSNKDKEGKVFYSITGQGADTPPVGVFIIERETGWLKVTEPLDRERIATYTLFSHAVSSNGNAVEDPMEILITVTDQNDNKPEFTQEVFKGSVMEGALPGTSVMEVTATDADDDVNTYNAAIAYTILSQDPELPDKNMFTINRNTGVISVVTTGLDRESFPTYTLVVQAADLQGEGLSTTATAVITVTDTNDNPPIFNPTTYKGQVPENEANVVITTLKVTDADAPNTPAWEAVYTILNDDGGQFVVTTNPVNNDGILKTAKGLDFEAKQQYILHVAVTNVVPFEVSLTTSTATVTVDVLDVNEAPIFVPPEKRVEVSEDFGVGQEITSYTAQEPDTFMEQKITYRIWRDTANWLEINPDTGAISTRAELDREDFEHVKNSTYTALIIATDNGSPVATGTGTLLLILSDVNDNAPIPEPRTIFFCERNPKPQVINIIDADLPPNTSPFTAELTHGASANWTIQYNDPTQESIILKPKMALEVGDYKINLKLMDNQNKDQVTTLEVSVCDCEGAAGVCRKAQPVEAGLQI

[3] = biological target: T1, N-cadherin/Fc chimeric protein; experiment: phage ELISA
Description: (§1) The binding of each clone to the cadherin/Fc chimeric proteins was confirmed by ELISA. Wells of ProBind microtiter plates (Falcon) were coated with either N-cadherin/Fc or E-cadherin/Fc chimeric protein (100 ng/well) or human IgG1 (which contains the Fc fragment) (100 ng/well). After blocking the nonspecific sites with TBS containing 3% BSA and 1.2 mM CaCl₂ for 1 h at 37° C., phage clones (10⁹ pfu) diluted in TBST containing 3% BSA and 1.2 mM CaCl₂ (100 μl/well). Non-coated wells were also used to exclude any phage that bound to the plastic surface. After 1 h incubation at room temperature, wells were washed 3 times with TBST containing 3% BSA and 1.2 mM CaCl₂. M13 phage without any insert were used to control the non-specific binding of the phage itself to the target. Monoclonal anti-M13 antibody conjugated to horseradish peroxidase (Amersham Biosciences, Piscataway, N.J.) was diluted in TBST containing 3% BSA and 1.2 mM CaCl₂ (1:2,000) and added to each well (100 μl/well). After 1 h incubation at room temperature, wells were washed three times with TBST containing 3% BSA and 1.2 mM CaCl₂ and once with TBS containing 1.2 mM CaCl₂. Horseradish peroxidase substrate, TMB (Sigma), was added to each well (100 μl/well and after color development the reaction was stopped by addition of 100 μl 0.5 M sulphuric acid to each well. The intensity of the color was measured at 450 nm.
(§2) The phage clones shown to bind to the N-cadherin/Fc chimeric protein by ELISA were also evaluated for their ability to bind to E-cadherin/Fc and VE-cadherin/Fc chimeric proteins. The phage clones shown to bind to the E-cadherin/Fc chimeric protein by ELISA were also evaluated for their ability to bind to N-cadherin/Fc and VE-cadherin/Fc chimeric proteins. The same ELISA protocol described in the previous section was used to perform this evaluation with the exception that the wells were coated with either 100 ng N-cadherin/Fc, E-cadherin/Fc or VE-cadherin/Fc chimeric protein (R&D Systems, Minneapolis, Minn.).

[4] = biological target: T2, E-cadherin/Fc chimeric protein; experiment: phage ELISA
Description: as §1, §2

[5] = biological target: T3, VE-cadherin/Fc chimeric protein (UniProt P33151 48-593); experiment: phage ELISA
T3 construct: Bought from R&D Systems; also called vascular endothelial (VE)-cadherin/Fc chimeric protein; not shown: Fc part not described
T3 sequence (looked up): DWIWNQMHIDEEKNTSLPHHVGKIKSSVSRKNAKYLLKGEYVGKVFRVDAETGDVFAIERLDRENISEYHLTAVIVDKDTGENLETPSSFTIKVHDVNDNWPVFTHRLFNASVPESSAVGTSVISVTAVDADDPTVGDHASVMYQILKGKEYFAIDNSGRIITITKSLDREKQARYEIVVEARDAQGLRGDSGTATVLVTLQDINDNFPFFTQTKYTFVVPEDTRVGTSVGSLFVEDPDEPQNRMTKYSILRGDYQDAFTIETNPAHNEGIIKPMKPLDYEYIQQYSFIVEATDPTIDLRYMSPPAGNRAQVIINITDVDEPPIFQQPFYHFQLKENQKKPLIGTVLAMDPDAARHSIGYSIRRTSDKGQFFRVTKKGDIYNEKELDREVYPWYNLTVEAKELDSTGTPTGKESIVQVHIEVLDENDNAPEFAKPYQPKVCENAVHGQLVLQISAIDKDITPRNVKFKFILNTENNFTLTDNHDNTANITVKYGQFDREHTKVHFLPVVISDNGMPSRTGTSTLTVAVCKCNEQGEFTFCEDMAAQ
Description: as §1, §2

[6] = biological target: T2, E-cadherin/Fc chimeric protein; experiment: phage ELISA; remark: listed apart in the source
Description: as §2

[7] = biological target: T3, VE-cadherin/Fc chimeric protein; experiment: phage ELISA; remark: listed apart in the source
Description: as §2

[8] = biological target: T1, N-cadherin/Fc chimeric protein; experiment: phage ELISA, 1.2 mM calcium
Description: as §1
An ELISA was performed in the presence of either 1.2 mM calcium or 2 mM EDTA. […] The signal obtained in the presence of EDTA was lower than in the presence of calcium.

Binder: H-SWELYYPLRANL-NH2 (Synthetic linear peptide) [H-SWELYYPLRANL-NH2]
- binding result [1]: binds
- binding result [2]: binds

B1: phage clone Ec a3 (peptide)
peptide: WQMVLCPAC
modifications: not fully specified; cysteine pairing not given here; also: displayed on M13 phage pIII
notes: whole phage in the assay
- binding result [3]: binds
- binding result [4]: binds
- binding result [5]: no binding (tested: 10^9 pfu)

Binder: HWYITTGPVREK (whole phage in the assay) [phage clone Nc 12-01]
- binding result [6]: no binding (tested: 10^9 pfu)
- binding result [7]: no binding (tested: 10^9 pfu)
- binding result [8]: binds

Binder: H-WYVCVGAH-NH2 (Synthetic linear peptide) [H-WYVCVGAH-NH2]
- binding result [1]: binds
- binding result [2]: no binding

Binder: H-EWMIHYDSALTS-NH2 (Synthetic linear peptide) [H-EWMIHYDSALTS-NH2]
- binding result [1]: binds
- binding result [2]: binds

Binder: H-WELRVSSP-NH2 (Synthetic linear peptide) [H-WELRVSSP-NH2]
- binding result [1]: binds
- binding result [2]: no binding

B2: phage clone Ec a23 (peptide)
peptide: CSRPQSGLC
modifications: not fully specified; cysteine pairing not given here; also: displayed on M13 phage pIII
notes: whole phage in the assay
- binding result [3]: binds
- binding result [4]: binds
- binding result [5]: no binding (tested: 10^9 pfu)

B3: phage clone Nc 15 (peptide)
peptide: WEVCLTEKC
modifications: not fully specified; cysteine pairing not given here; also: displayed on M13 phage pIII
notes: whole phage in the assay
- binding result [6]: no binding (tested: 10^9 pfu)
- binding result [7]: no binding (tested: 10^9 pfu)

Binder: WEVRLTEKC (whole phage in the assay) [phage clone Nc a3]
- binding result [6]: no binding (tested: 10^9 pfu)
- binding result [7]: no binding (tested: 10^9 pfu)

Binder: WHTSWSDTY (whole phage in the assay) [phage clone Nc 19]
- binding result [6]: no binding (tested: 10^9 pfu)
- binding result [7]: no binding (tested: 10^9 pfu)

Binder: SWTLYTPSGQSK (whole phage in the assay) [phage clone Nc 12-04]
- binding result [6]: no binding (tested: 10^9 pfu)
- binding result [7]: no binding (tested: 10^9 pfu)

Binder: WTWHWPPCC (whole phage in the assay) [phage clone Ec a22]
- binding result [3]: binds
- binding result [4]: binds
- binding result [5]: no binding (tested: 10^9 pfu)

Binder: SWTLYTPSGQSK (whole phage in the assay) [phage clone Nc 12-a2]
- binding result [6]: no binding (tested: 10^9 pfu)
- binding result [7]: no binding (tested: 10^9 pfu)

Binder: WLQPYFPSY (whole phage in the assay) [phage clone Nc 1]
- binding result [6]: no binding (tested: 10^9 pfu)
- binding result [7]: no binding (tested: 10^9 pfu)

Binder: H-HWYITTGPVREK-NH2 (Synthetic linear peptide) [H-HWYITTGPVREK-NH2]
- binding result [1]: binds
- binding result [2]: no binding

B4: phage clone Nc 5 (peptide)
peptide: WEFSICETC
modifications: not fully specified; cysteine pairing not given here; also: displayed on M13 phage pIII
notes: whole phage in the assay
- binding result [6]: no binding (tested: 10^9 pfu)
- binding result [7]: no binding (tested: 10^9 pfu)

B5: phage clone Nc 25 (peptide)
peptide: WELCVSSSC
modifications: not fully specified; cysteine pairing not given here; also: displayed on M13 phage pIII
notes: whole phage in the assay
- binding result [6]: no binding (tested: 10^9 pfu)
- binding result [7]: no binding (tested: 10^9 pfu)

B6: phage clone Nc 8 (peptide)
peptide: WTVCPIGNC
modifications: not fully specified; cysteine pairing not given here; also: displayed on M13 phage pIII
notes: whole phage in the assay
- binding result [6]: no binding (tested: 10^9 pfu)
- binding result [7]: no binding (tested: 10^9 pfu)

B7: phage clone Ec a4 (peptide)
peptide: CSKYNSPLC
modifications: not fully specified; cysteine pairing not given here; also: displayed on M13 phage pIII
notes: whole phage in the assay
- binding result [3]: binds
- binding result [4]: binds
- binding result [5]: no binding (tested: 10^9 pfu)

Binder: WELRVSSPC (whole phage in the assay) [phage clone Nc a7]
- binding result [6]: no binding (tested: 10^9 pfu)
- binding result [7]: no binding (tested: 10^9 pfu)

Binder: WLQPYFPSY (whole phage in the assay) [phage clone Nc a5]
- binding result [6]: no binding (tested: 10^9 pfu)
- binding result [7]: no binding (tested: 10^9 pfu)
